The source of these data is PMC3967914.

In this series the target is MHF1 (CENP-S);MHF2 (CENP-X) (Homo sapiens;Homo sapiens, UniProt Q8N2Z9;A8MT69 1-138;1-81, |). As to the kind of experiment: X-ray crystallography.
Chain of MHF1 (CENP-S);MHF2 (CENP-X) (Q8N2Z9 whole entry, chain 1 of 2): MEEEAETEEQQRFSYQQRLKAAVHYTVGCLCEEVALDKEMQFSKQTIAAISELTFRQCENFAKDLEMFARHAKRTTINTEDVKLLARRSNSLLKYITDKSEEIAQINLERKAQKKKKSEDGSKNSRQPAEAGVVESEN
Chain of MHF1 (CENP-S);MHF2 (CENP-X) (A8MT69 whole entry, chain 2 of 2): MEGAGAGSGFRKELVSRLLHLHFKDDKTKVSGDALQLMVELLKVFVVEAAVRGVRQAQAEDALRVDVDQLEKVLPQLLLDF

B1: 26 bp dsDNA (crystal) (dsDNA)
DNA 1: ATCAATATCCACCGGTGGATATTGAT
DNA 2: ATCAATATCCACCGGTGGATATTGAT
On to B1, for which the binding result was “binds”.
